From paper doi:10.1101/2024.06.20.599739, “Design of linear and cyclic peptide binders of different lengths from protein sequence information” (bioRxiv, 2024)
Values joined by “and” are separate entries in the source; they are usually repeats but may differ in a detail not shown here. Equal entries are not always repeated.

Target: T1, MBP-8xHis-1SCC (semi-synthetic Ribonuclease, PDB ID 1SSC) (UniProt P61823 27-138)
T1 construct: also called psfRNAseA; psfRNAseA-c001; source: E. coli BL21 (DE3) T1R, purified (IMAC, size exclusion chromatography)
T1 sequence: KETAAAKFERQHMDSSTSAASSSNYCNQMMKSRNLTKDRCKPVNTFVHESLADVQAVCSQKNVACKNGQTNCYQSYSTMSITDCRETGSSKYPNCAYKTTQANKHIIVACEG
Test: SPR; MBP-8xHis-1SCC immobilised to about 12000 RU by amine coupling (EDC/NHS) on a Series S CM5 chip, Biacore 8K; peptides as analytes, single-cycle kinetics (2, 10, 50 μM; or 3.125-50 μM in five steps); 25 °C; HBS-P+ (10 mM HEPES pH 7.4, 150 mM NaCl, 0.05% Tween-20); 30 μL/min, 120 s association, 1800 s dissociation; 1:1 binding model
Details: both partners purified

B1: known peptide binder (11 residues) of the semi-synthetic Ribonuclease (peptide)
peptide: PYVPVHFDASV
notes: C-terminal stretch of ribonuclease A, the peptide chain of PDB 1SSC; also called wildtype (WT) linear peptide; wild-type peptide; source: synthetic peptide
  Kd: 35 nM and 25 nM
